Data on nine molecules can be found in patent US20170101472A1 (Regeneron, published 2017).

Substitutions are numbered along the chain they refer to. In names and notes the source's numbering stands. Bounds are passed on as bounds.

In assay [1] the target is T1, monkey LAG3 (mfLAG3) expressed on HEK293 cells (cynomolgus monkey, UniProt P18627 24-525 (human entry)).
T1 construct: also called HEK293/mfLAG3; HEK293-mfLAG3
T1 chain: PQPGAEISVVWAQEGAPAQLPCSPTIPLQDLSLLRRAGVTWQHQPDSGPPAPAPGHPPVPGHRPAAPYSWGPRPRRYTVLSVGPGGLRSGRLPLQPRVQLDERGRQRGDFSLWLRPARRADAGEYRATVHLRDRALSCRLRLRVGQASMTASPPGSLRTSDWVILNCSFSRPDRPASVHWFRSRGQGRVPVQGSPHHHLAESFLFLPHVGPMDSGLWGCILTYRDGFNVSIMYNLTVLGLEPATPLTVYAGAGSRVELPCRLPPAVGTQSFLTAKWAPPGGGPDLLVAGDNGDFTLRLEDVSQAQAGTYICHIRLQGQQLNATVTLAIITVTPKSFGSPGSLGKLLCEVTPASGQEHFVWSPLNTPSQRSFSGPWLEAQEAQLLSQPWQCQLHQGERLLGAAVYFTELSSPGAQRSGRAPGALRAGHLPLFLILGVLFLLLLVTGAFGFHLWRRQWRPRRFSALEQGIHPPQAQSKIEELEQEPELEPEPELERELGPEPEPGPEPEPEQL
In words: flow cytometry, HEK293/mfLAG3 cells. How it is done: The serially diluted antibodies were added to the cell suspension and incubated for 15-30 minutes on ice. The cells were centrifuged and pellets were washed with staining buffer to remove unbound antibodies. […] The cells were centrifuged and pellets were washed with staining buffer to remove unbound secondary F(ab′)2 and fixed overnight with a 1:1 dilution of Cytofix (BD Biosciences, #554655) and staining buffer. Following day, fixed cells were centrifuged and pellets were washed with staining buffer, resuspended and filtered. Fluorescence measurements were acquired on HyperCyt® cytometer and analyzed in ForeCyt™ (IntelliCyt; Albuquerque, N. Mex.) to determine the mean fluorescence intensities (MFI). The EC₅₀ values were calculated from a four-parameter logistic equation over an 11-point response curve using GraphPad Prism. EC₅₀ was defined as the concentration of antibody at which 50% of maximal binding signal is detected. The MFI ratio for each antibody was calculated by dividing the MFI at 100 nM by MFI at 0 nM of antibody concentration.
On the technique in general: In flow cytometry, cells or beads pass a laser one at a time.

Assay [2] concerns the target T1, monkey LAG3 (mfLAG3) expressed on …. Kind of assay: electrochemiluminescence cell binding. How it is done:
To investigate the ability of a panel of anti-LAG3 monoclonal antibodies to bind cell-surface expressed LAG3, an in vitro binding assay utilizing human and monkey LAG3 expressing cell lines in an electrochemiluminescence based detection platform [Meso Scale Diagnostics, Rockville, Md.—(MSD)] was developed.
Experiments were carried out according to following procedure. Cells from the three cell lines described above were rinsed once in 1×PBS buffer without Ca²⁺/Mg²⁺ followed by 10-minute incubation at 37° C. with Enzyme Free Cell Dissociation Solution. […] Approximately 10,000 cells per well in the cell-washing buffer were seeded into the 96-well carbon electrode plates (MULTI-ARRAY high bind plate, MSD) and incubated for 1 hour at 37° C. to allow the cells to adhere. Nonspecific binding sites were blocked by 2% BSA (w/v) in PBS for 1 hour at room temperature. […] The plates were then washed to remove the unbound antibodies using an AquaMax2000 plate washer (MDS Analytical Technologies). The plate-bound antibodies were detected with a SULFO-TAG™-conjugated anti-human IgG antibody (MSD) for 1 hour at room temperature. After washes, the plates were developed with the Read Buffer (MSD) according to manufacturer's recommended procedure and the luminescent signals were recorded with a SECTOR Imager 6000 (MSD) instrument. The direct binding signals (in relative light units—RLU) were analyzed as a function of the antibody concentration and the data were fitted with a sigmoidal (four-parameter logistic) dose-response model using Graph Pad Prism™ software. The potency of each antibody was determined by calculating EC₅₀.

B1: H4sH15498P2 (antibody, V domains shown)
VH: EVQLVESGGGLVQPGGSLRLSCAASGFTFTSYAMTWVRQAPGKGLEWVSDISGSGGRTYYADSVKGRFTISRDNSKNMLYLQMNILRAEDTAVYHCAKGTGQQVDLYNYYYALDVWGQGTTVTVSS
VL: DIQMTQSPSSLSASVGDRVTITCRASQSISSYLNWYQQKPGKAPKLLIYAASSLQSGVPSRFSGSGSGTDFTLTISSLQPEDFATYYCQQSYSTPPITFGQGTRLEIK
notes: H4sH = human IgG4 Fc with 2 or more amino acid changes as disclosed in US20140243504
Usually EC50 stands for the concentration that produces a half-maximal response. On to B1, for which, in assay [1], the EC50 is over 10 nM and the “Ratio of MFI (100 nM/0 nM)” value is 12.1. Further, the “Ratio of 100 nM antibody binding HEK293-mfLAG3 to HEK293 cells” value (from here on “Ratio … to HEK293 cells”) in assay [2] was 32.7.

B2: H4H15498P2 (antibody, human IgG4, V domains shown)
VH: B1 VH
VL: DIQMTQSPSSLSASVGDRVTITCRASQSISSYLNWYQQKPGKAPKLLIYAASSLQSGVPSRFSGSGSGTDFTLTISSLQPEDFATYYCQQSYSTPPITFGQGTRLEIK
notes: H4H = human IgG4 Fc with S108P hinge mutation
For the molecule B2, in assay [1], the EC50 is over 10 nM and the “Ratio of MFI (100 nM/0 nM)” value was found to be 12.8. Further, in assay [2], the “Ratio … to HEK293 cells” value came out at 13.8.

B3: H4H17826P2 (antibody, human IgG4, V domains shown)
VH: EVQLVESGGGLVQPGGSLRLSCAASGFTFSSYEMNWVRQAPGKGLEWVSYISSSGNTKDYAGSVKGRVTISRDNAKNLLYLQMNSLRAEDTAVYHCARDGGHYDILTGSMSYYYYALDVWGQGTTVTVSS
VL: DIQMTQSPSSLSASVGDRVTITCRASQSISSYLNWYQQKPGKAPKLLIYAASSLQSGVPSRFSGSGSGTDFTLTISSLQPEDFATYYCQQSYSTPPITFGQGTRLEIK
notes: as for B2
On to B3, for which, in assay [1], the EC50 is over 10 nM and the “Ratio of MFI (100 nM/0 nM)” value was 14.3. Besides, the “Ratio … to HEK293 cells” value in assay [2] worked out at 4.7.

B4: H4H17819P (antibody, human IgG4, V domains shown)
VH: EVQLVESGGGLVQPGGSLRLSCVASGFTFSLYAMTWVRQVPGKGLEWVSTISGSGGGTYYTDSVKGRFTISRDNSKNTLYLQMNSLRADDTAVFYCTKESTTGTYSYFYGMDVWGQGTTVTVSS
VL: DIQMTQSPSSLSASVGDRVTITCRASQTISSYLNWYQQKPGKAPKLLIYAASSLQSGVPSRFSGSGSGTDFTLTLSGLQPEDFATYYCQQSYSTPLTFGGGTKVEIK
notes: as for B2
As for B4, in assay [1], the EC50 is over 10 nM and the “Ratio of MFI (100 nM/0 nM)” value stood at 12.1. For the same molecule, the “Ratio … to HEK293 cells” value in assay [2] is 8.3.

B5: H4H15479P (antibody, human IgG4, V domains shown)
VH: QVQLQQWGAGLLNPSETLSLTCAVYGGAFSDYYWNWIRQPPGKGLEWIGEINHRGSTNYNPSLKSRVTISVDTSKNQFSLRMSSVTAADAAVYYCARGEDYDIWNGYYQEKWGQGTLVTVSS
VL: EIVLTQSPATLSLSPGERATLSCRASQSISTYLAWYQQKPGQAPRLLIYDASKRATGIPARFSGSGSGTDFTLTISSLEPEDFVVYYCHQRSNWPLTFGGGTKVEIK
On to B5, for which, in assay [1], the midpoint of the response, the EC50, lay at 1.35 nM and the “Ratio of MFI (100 nM/0 nM)” value came to 21.5. In addition, the “Ratio … to HEK293 cells” value in assay [2] was 2.1.

B6: H4H15483P (antibody, human IgG4, V domains shown)
VH: QVQLQQWGAGLLPPSETLSLICAVYGGSFSGYYWSWIRQPPGKGLEWIGEINHRGSTNYNPSLKSRATISVDTSKNQFSLKLSSVTAADTAVYYCSRGEDYYDSSGYSYYFDYWGQGTLVTVSS
VL: B5 VL with I29V, T31S, K53N, V84A, H89Q
notes: as for B2
As for B6, in assay [1], the EC50 is over 10 nM and the “Ratio of MFI (100 nM/0 nM)” value was 8.8.

B7: H4sH15462P (antibody, V domains shown)
VH: QVQLVQSGAEVKKPGASVKVSCKASGYTFTNYYIHWVRQAPGQGLDWMGIINPGGGNTNYAQKFLGRVTMTRDTSTTTVYMELSSLRSEDTAIYYCARENWNSYFDNWGQGTLVTVSS
VL: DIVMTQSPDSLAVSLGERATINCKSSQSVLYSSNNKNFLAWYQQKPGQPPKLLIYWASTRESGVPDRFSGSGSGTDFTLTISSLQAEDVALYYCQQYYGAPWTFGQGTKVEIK
notes: as for B1
Take B7: in assay [1], the “Ratio of MFI (100 nM/0 nM)” value amounted to 1 and the binding result is listed as “no binding (tested: 100 nM)”.

B8: H4H15462P (antibody, human IgG4, V domains shown)
VH: B7 VH
VL: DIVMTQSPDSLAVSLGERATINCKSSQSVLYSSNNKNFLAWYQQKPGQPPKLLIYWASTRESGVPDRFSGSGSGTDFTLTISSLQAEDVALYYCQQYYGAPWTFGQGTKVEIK
notes: as for B2
As to B8, in assay [1], the “Ratio of MFI (100 nM/0 nM)” value was 2.9 and the binding result is listed as “no binding (tested: 100 nM)”.

B9: H4H17828P2 (antibody, human IgG4, V domains shown)
VH: EVQLVESGGGLVQPGGSLRLSCAASGFTFKTYAMSWVRQAPGRGLEWVSGISGSGSTSYYADSVKGRFTISRDNYKKTLSLQMNSLRAEDTAVYYCALDIMATVGGLFNNWGQGTLVTVSS
VL: not shown
notes: as for B2
In the case of B9, in assay [2], the “Ratio … to HEK293 cells” value is 6.
